Measured values as given in article PMC2760630.

Tested on: [H][C@@]12COP(=O)(O)O[C@@]1([H])[C@@H](O)[C@H](n1cnc3c(=O)[nH]c(N)nc31)O2
Assay: purified protein
[1] = catalytic site (Km, reduced affinity), allosteric cGMP binding unchanged

Substance	Km [1]	Km (catalytic site (Km), also allosteric site)
PDE5 (human PDE5A1, G659A) (Homo sapiens; G659A)	71.2 ± 1.2 µM	–
PDE5 (human PDE5A1, G659P) (Homo sapiens; G659P)	131.5 ± 7.4 µM	–
PDE5 (human PDE5A1, WT) (Homo sapiens)	–	2.91 ± 0.8 µM
